Assay results taken from publication PMC5264652 (EBioMedicine, 2016).
“And” between values parts separate entries of the source, which are not always exact repeats. Equal values may be shown once. Read-outs that look alike come from different tables or passages of the source.

B1: Human fibrinogen (complex)
chain 1: ADSGEGDFLAEGGGVRGPRVVERHQSACKDSDWPFCSDEDWNYKCPSGCRMKGLIDEVNQDFTNRINKLKNSLFEYQKNNKDSHSLTTNIMEILRGDFSSANNRDNTYNRVSEDLRSRIEVLKRKVIEKVQHIQLLQKNVRAQLVDMKRLEVDIDIKIRSCRGSCSRALAREVDLKDYEDQQKQLEQVIAKDLLPSRDRQHLPLIKMKPVPDLVPGNFKSQLQKVPPEWKALTDMPQMRMELERPGGNEITRGGSTSYGTGSETESPRNPSSAGSWNSGSSGPGSTGNRNPGSSGTGGTATWKPGSSGPGSTGSWNSGSSGTGSTGNQNPGSPRPGSTGTWNPGSSERGSAGHWTSESSVSGSTGQWHSESGSFRPDSPGSGNARPNNPDWGTFEEVSGNVSPGTRREYHTEKLVTSKGDKELRTGKEKVTSGSTTTTRRSCSKTVTKTVIGPDGHKEVTKEVVTSEDGSDCPEAMDLGTLSGIGTLDGFRHRHPDEAAFFDTASTGKTFPGFFSPMLGEFVSETESRGSESGIFTNTKESSSHHPGIAEFPSRGKSSSYSKQFTSSTSYNRGDSTFESKSYKMADEAGSEADHEGTHSTKRGHAKSRPVRGIHTSPLGKPSLSP
chain 2: QGVNDNEEGFFSARGHRPLDKKREEAPSLRPAPPPISGGGYRARPAKAAATQKKVERKAPDAGGCLHADPDLGVLCPTGCQLQEALLQQERPIRNSVDELNNNVEAVSQTSSSSFQYMYLLKDLWQKRQKQVKDNENVVNEYSSELEKHQLYIDETVNSNIPTNLRVLRSILENLRSKIQKLESDVSAQMEYCRTPCTVSCNIPVVSGKECEEIIRKGGETSEMYLIQPDSSVKPYRVYCDMNTENGGWTVIQNRQDGSVDFGRKWDPYKQGFGNVATNTDGKNYCGLPGEYWLGNDKISQLTRMGPTELLIEMEDWKGDKVKAHYGGFTVQNEANKYQISVNKYRGTAGNALMDGASQLMGENRTMTIHNGMFFSTYDRDNDGWLTSDPRKQCSKEDGGGWWYNRCHAANPNGRYYWGGQYTWDMAKHGTDDGVVWMNWKGSWYSMRKMSMKIRPFFPQQ
chain 3: YVATRDNCCILDERFGSYCPTTCGIADFLSTYQTKVDKDLQSLEDILHQVENKTSEVKQLIKAIQLTYNPDESSKPNMIDAATLKSRKMLEEIMKYEASILTHDSSIRYLQEIYNSNNQKIVNLKEKVAQLEAQCQEPCKDTVQIHDITGKDCQDIANKGAKQSGLYFIKPLKANQQFLVYCEIDGSGNGWTVFQKRLDGSVDFKKNWIQYKEGFGHLSPTGTTEFWLGNEKIHLISTQSAIPYALRVELEDWNGRTSTADYAMFKVGPEADKYRLTYAYFAGGDAGDAFDGFDFGDDPSDKFFTSHNGMQFSTWDNDNDKFEGNCAEQDGSGWWMNKCHAGHLNGVYYQGGTYSKASTPNGYDNGIIWATWKTRWYSMKKTTMKIIPFNRLTIGEGQQHHLGGAKQAGDV
B3: ClfA_(229–545) (domain or fragment)
chain: GTDITNQLTNVTVGIDSGTTVYPHQAGYVKLNYGFSVPNSAVKGDTFKITVPKELNLNGVTSTAKVPPIMAGDQVLANGVIDSDGNVIYTFTDYVNTKDDVKATLTMPAYIDPENVKKTGNVTLATGIGSTTANKTVLVDYEKYGKFYNLSIKGTIDQIDKTNNTYRQTIYVNPSGDNVIAPVLTGNLKPNTDSNALIDQQNTSIKVYKVDNAADLSESYFVNPENFEDVTNSVNITFPNPNQYKVEFNTPDDQITTPYIVVVNGHIDPNSKGDLALRSTLYGYNSNIIWRSMSWDNEVAFNNGSGSGDGIDKPVVP

Key:
Experiment in all cases: SPR
GST-tagged Fg γ peptide = molecular target: GST-tagged Fg γ peptide
ClfA_(229–545) [1] = molecular target: B3
ClfA_(229–545) [2] = molecular target: ClfA_(229–545) (S. aureus strain Newman, UniProt Q53653)
Human fibrinogen [3] = molecular target: B1
Human fibrinogen [4] = molecular target: B1; remark: listed apart in the source
Fibrinogen D-fragment [5] = molecular target: T1, Fibrinogen D-fragment (UniProt P02671;P02675;P02679-2)
T1 sequence 1: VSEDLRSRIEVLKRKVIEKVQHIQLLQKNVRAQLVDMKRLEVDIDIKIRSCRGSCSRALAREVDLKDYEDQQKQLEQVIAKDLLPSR
T1 sequence 2: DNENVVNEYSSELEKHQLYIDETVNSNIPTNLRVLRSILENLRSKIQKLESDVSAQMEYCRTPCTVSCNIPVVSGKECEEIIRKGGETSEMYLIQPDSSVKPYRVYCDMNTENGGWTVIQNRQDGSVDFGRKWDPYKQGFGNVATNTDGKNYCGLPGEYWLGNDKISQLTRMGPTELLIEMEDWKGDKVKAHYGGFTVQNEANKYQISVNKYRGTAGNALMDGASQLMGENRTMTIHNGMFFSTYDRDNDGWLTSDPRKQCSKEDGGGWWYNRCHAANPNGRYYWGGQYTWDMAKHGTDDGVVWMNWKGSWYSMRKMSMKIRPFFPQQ
T1 sequence 3: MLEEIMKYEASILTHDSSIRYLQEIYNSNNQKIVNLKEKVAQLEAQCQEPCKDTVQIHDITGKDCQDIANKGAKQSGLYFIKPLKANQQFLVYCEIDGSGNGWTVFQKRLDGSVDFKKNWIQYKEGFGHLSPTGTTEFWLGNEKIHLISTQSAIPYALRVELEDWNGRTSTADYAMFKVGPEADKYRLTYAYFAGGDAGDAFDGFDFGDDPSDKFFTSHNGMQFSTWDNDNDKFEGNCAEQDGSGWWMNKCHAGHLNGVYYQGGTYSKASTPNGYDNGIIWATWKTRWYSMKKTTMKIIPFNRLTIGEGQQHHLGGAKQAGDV

Fibrinogen D-fragment [6] = molecular target: T1, Fibrinogen D-fragment; remark: listed apart in the source

Work on “ClfA N3 (ClfA_(370–559)) (from UniProt Q53653 370-559) (domain or fragment)” yielded a fold lower affinity against intact Fg or Fg D-fragment (GST-tagged Fg γ peptide) of 10 fold.

“ClfA_(229–545) (from UniProt Q53653 229-545) (domain or fragment)” showed a fold difference in KD against Fg or Fg D-fragment (GST-tagged Fg γ peptide) of 50 fold.

In the case of B1, the IC50 (ClfA_(229–545) [1]) is reported as 430 nM and 480 nM.

B2: tefibazumab (antibody, V domains shown)
VH: QVQLKESGPGLVKPSQTLSITCTISGFSLSRYSVHWVRQPPGKGLEWLGMIWGGGNTDYNSALKSRLSISKDNSKNQVFLKMNSLTAADTAVYYCARKGEFYYGYDGFVYWGQGTLVTVSS
VL: DIVMTQSPDSLAVSLGERVTMNCKSSQSVLYSSNQKNYLAWYQQKPGQSPKLLIYWASTRESGVPDRFSGSGSGTDFTLTISSVQAEDLAVYYCHQYLSSYTFGGGTKLEIK
For B2, the IC50 (ClfA_(229–545) [2]) was 330 nM and 390 nM, the Kd (ClfA_(229–545) [2]) was 0.79 nM and 0.81 nM and 0.7 nM and the koff (ClfA_(229–545) [2]) was 0.00049 s⁻¹. It also gave a kon (ClfA_(229–545) [2]) of 594000 M⁻¹ s⁻¹.

B3 was tested, and the Kd (Human fibrinogen [3]) was 610 nM and 660 nM.

B4: ClfAPWY (domain or fragment)
chain: VAADAPAAGTDITNQLTNVTVGIDSGTTVYPHQAGYVKLNYGFSVPNSAVKGDTFKITVPKELNLNGVTSTAKVPPIMAGDQVLANGVIDSDGNVIYTFTDYVNTKDDVKATLTMPAYIDPENVKKTGNVTLATGIGSTTANKTVLVDYEKYGKFYNLSIKGTIDQIDKTNNTYRQTIYVNPSGDNVIAPVLTGNLKPNTDSNALIDQQNTSIKVYKVDNAADLSESYFVNPENFEDVTNSVNITFANPNQYKVEFNTPDDQITTPYIVVVNGHIDPNSKGDLALRSTLYGANSNIIARSMSWDNEVAFNNGSGSGDGIDKPVVPEQPDEPGEIEPIPE
B4 gave a Kd (Human fibrinogen [4]) of 10000 nM and a Kd (Fibrinogen D-fragment [5]) of 17000 nM.

B5: ClfA N3 (ClfA_(370–559)) (domain or fragment)
chain: EKYGKFYNLSIKGTIDQIDKTNNTYRQTIYVNPSGDNVIAPVLTGNLKPNTDSNALIDQQNTSIKVYKVDNAADLSESYFVNPENFEDVTNSVNITFPNPNQYKVEFNTPDDQITTPYIVVVNGHIDPNSKGDLALRSTLYGYNSNIIWRSMSWDNEVAFNNGSGSGDGIDKPVVPEQPDEPGEIEPIPE
With B5 the “fold of KD against ClfA229-545 on the same protein” value (Human fibrinogen [3]) was about 10 fold and the “fold of KD against ClfA229-545 on the same protein” value (Fibrinogen D-fragment [6]) was about 10 fold.
